# Numbering of substitutions follows the chain as printed. Numbers in names are those of the source.
# T1: human CD11a (human) (UniProt P20701)
# T1 sequence (looked up): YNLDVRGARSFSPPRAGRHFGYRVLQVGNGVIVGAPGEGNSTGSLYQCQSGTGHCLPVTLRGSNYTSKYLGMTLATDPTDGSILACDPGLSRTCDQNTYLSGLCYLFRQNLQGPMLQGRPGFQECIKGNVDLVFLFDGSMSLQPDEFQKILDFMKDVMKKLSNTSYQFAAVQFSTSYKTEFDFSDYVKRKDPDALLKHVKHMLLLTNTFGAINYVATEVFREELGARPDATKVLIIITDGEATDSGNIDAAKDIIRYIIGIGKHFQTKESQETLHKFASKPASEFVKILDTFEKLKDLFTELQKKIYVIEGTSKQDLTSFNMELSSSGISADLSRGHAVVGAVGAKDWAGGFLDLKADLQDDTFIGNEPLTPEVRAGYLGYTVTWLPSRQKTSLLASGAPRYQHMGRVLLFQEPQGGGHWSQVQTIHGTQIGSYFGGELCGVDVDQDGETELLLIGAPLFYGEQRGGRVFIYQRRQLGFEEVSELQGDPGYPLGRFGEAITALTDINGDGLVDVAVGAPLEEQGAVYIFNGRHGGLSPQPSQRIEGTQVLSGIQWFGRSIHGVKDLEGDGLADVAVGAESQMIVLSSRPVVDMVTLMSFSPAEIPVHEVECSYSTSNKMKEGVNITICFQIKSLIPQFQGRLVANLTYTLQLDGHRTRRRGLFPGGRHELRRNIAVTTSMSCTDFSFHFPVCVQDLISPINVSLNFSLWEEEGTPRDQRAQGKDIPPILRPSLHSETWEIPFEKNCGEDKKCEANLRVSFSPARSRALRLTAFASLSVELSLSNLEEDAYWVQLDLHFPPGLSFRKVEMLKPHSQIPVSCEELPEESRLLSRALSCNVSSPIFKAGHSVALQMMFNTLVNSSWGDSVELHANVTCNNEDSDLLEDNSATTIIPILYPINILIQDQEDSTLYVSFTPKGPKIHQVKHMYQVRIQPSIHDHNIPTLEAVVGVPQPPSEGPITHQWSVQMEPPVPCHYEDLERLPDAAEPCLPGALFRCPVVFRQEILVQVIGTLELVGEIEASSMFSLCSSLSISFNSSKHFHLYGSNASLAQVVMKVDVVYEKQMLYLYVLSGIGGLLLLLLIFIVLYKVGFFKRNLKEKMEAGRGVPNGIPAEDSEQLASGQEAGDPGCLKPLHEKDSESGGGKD
# T2: rhesus CD11a (rhesus) (UniProt H9Z8N3)
# T2 sequence: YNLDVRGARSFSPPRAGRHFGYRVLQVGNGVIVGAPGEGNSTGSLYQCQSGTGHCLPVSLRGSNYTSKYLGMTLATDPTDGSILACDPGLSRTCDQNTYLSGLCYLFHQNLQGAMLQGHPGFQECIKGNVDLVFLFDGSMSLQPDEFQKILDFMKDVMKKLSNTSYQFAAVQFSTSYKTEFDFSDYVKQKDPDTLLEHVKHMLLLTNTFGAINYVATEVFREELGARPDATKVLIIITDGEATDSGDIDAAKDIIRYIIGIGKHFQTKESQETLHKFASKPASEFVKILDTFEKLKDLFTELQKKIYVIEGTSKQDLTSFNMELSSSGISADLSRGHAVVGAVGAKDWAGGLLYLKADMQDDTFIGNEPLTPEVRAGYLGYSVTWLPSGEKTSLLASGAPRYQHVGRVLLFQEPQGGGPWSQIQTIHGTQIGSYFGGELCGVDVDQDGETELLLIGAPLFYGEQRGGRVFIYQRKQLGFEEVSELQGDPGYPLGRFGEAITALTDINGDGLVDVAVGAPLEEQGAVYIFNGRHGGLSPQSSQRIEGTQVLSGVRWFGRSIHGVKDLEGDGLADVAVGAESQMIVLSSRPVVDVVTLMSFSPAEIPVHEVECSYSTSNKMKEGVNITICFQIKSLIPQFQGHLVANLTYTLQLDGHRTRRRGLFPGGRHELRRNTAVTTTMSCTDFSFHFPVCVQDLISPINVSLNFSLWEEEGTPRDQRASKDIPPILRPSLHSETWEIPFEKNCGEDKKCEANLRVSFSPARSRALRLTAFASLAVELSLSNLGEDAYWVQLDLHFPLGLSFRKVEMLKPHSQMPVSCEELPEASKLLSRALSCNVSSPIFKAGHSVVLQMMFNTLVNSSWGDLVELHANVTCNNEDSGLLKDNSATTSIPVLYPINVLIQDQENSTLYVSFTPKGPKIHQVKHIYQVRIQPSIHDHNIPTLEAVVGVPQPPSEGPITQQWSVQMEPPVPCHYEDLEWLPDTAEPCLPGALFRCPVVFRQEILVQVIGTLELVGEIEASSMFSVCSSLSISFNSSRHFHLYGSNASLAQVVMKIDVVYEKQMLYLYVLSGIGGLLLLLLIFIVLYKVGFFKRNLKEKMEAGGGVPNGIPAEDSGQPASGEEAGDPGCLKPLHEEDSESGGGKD
# B1: L1 variant IgG1 (antibody, V domains shown)
# VH: EVQLVESGGGLVQPGGSLRLSCAASGYSFTGHWMNWVRQAPGKGLEWVGMIHPSDSETRYNQKFKDRFTISVDKSKNTLYLQMNSLRAEDTAVYYCARGIYFYGTTYFDYWGQGTLVTVSS
# VL: DIQMTQSPSSLSASVGDRVTITCRASAAIAAYLAWYQQKPGKAPKLLIYSGSTLQSGVPSRFSGSGSGTDFTLTISSLQPEDFATYYCQQHNEYPLTFGQGTKVEIKR
# B2: HisH52Ser variant IgG1 (antibody, V domains shown)
# VH: B1 VH with H52S
# VL: DIQMTQSPSSLSASVGDRVTITCRASKTISKYLAWYQQKPGKAPKLLIYSGSTLQSGVPSRFSGSGSGTDFTLTISSLQPEDFATYYCQQHNEYPLTFGQGTKVEIK
# B3: humanized MHM24 F(ab)-3 (Fab, V domains shown)
# VH: B1 VH with Y27F, F68A, K74N
# VL: B2 VL with T53S, Q55E
# B4: AspH54Glu variant IgG1 (antibody, V domains shown)
# VH: B1 VH with D55E
# VL: B2 VL
# B5: TyrH99Ala variant IgG1 (antibody, V domains shown)
# VH: B1 VH with Y103A
# VL: B2 VL
# B6: SerH55Asn variant IgG1 (antibody, V domains shown)
# VH: B1 VH with S56N
# VL: B2 VL
# B7: TyrL94Ala variant IgG1 (antibody, V domains shown)
# VH: B1 VH
# VL: B1 VL with A27K, A28T, A30S, A31K, Y94A
# B8: humanized MHM24 F(ab)-4 (Fab, V domains shown)
# VH: B1 VH with Y27F, V72R, K74N
# VL: B2 VL with T53S, Q55E
# B9: humanized MHM24 F(ab)-8 (Fab, V domains shown)
# VH: B1 VH
# VL: B1 VL with A27K, A28T, A30S, A31K
# B10: H3B variant IgG1 (antibody, V domains shown)
# VH: B1 VH with T105A, T106A, Y107A
# VL: B2 VL
# B11: L2 variant IgG1 (antibody, V domains shown)
# VH: B1 VH
# VL: B1 VL with A27K, A28T, A30S, A31K, S50A, S52A, T53A
# B12: SerH28Ala variant IgG1 (antibody, V domains shown)
# VH: B1 VH with S28A
# VL: B2 VL
# B13: ThrH100bAla variant IgG1 (antibody, V domains shown)
# VH: B1 VH with T106A
# VL: B2 VL
# B14: H2C11 variant IgG1 (antibody, V domains shown)
# VH: B1 VH with H52A, S54A, D55S, E57N
# VL: B2 VL
# B15: SerL50Ala variant IgG1 (antibody, V domains shown)
# VH: B1 VH
# VL: B1 VL with A27K, A28T, A30S, A31K, S50A
# B16: LysH73Ala variant IgG1 (antibody, V domains shown)
# VH: B1 VH with K74A
# VL: B2 VL
# B17: ThrH100aAla variant IgG1 (antibody, V domains shown)
# VH: B1 VH with T105A
# VL: B2 VL
# B18: SerL52Ala variant IgG1 (antibody, V domains shown)
# VH: B1 VH
# VL: B1 VL with A27K, A28T, A30S, A31K, S52A
# B19: humanized MHM24 F(ab)-5 (Fab, V domains shown)
# VH: B1 VH with Y27F, K76S, N77S
# VL: B2 VL with T53S, Q55E
# B20: H1 variant IgG1 (antibody, V domains shown)
# VH: B1 VH with S28A, T30A, H32A
# VL: B2 VL
# B21: TyrH100cAla variant IgG1 (antibody, V domains shown)
# VH: B1 VH with Y107A
# VL: B2 VL
# B22: TyrH97Ala variant IgG1 (antibody, V domains shown)
# VH: B1 VH with Y101A
# VL: B2 VL
# B23: HisH32Ala variant IgG1 (antibody, V domains shown)
# VH: B1 VH with H32A
# VL: B2 VL
# B24: AspH54Lys variant IgG1 (antibody, V domains shown)
# VH: B1 VH with D55K
# VL: B2 VL
# B25: H2C6 variant IgG1 (antibody, V domains shown)
# VH: B1 VH with H52A, S54A, D55N, E57Q
# VL: B2 VL
# B26: AspH54Ser variant IgG1 (antibody, V domains shown)
# VH: B1 VH with D55S
# VL: B2 VL
# B27: H2C14 variant IgG1 (antibody, V domains shown)
# VH: B1 VH with H52A, S54A, D55S, E57A
# VL: B2 VL
# B28: H2C4 variant IgG1 (antibody, V domains shown)
# VH: B1 VH with H52A, S54A, D55N, E57A
# VL: B2 VL
# Target: T1, human CD11a (human)
# Test: FACScan, Jurkat cells
Var.EC50/HuIgG1 EC50,EC50 F(ab)/EC50 F(ab)-2,Variant EC50/HulgG1 EC50,fold reduction in binding against F(ab)-2,fold improvement in binding over F(ab)-2,Binder
1.3,,,,,B1
5,,,,,B2
,1.2,,,,B3
,,16,,,B4
1.4,,,,,B5
2.1,,,,,B6
11.8,,,,,B7
,2.9,,3 fold,,B8
,0.004,,,,B9
34.7,,,,,B10
1.1,,,,,B11
6.9,,,,,B12
1.4,,,,,B13
24.9,,,,,B14
1.2,,,,,B15
5.2,,,,,B16
2.3,,,,,B17
1.1,,,,,B18
,0.043,,,23 fold,B19
5.9,,,,,B20
7.6,,,,,B21
10.9,,,,,B22
2.3,,,,,B23

# Target: T2, rhesus CD11a (rhesus)
# Test: binding to rhesus peripheral blood lymphocytes
Var.EC50/HuIgG1 EC50,Variant EC50/HulgG1 EC50,Binder
1,,B1
,3.8,B24
0.21,,B25
,0.9,B26
0.021,,B27
2.7,,B15
13.3,,B18
0.38,,B28

# From patent EP1516629B1
